We go through one molecule from article PMC9680732 (Biophysical Reports, 2021).

In this experiment the target is linear triubiquitin (UniProt P0CG48). The experiment in a line: BLI. For orientation: In BLI a coated tip is dipped into the sample, and binding shifts an interference pattern.
Chain of linear triubiquitin (P0CG48 1-228): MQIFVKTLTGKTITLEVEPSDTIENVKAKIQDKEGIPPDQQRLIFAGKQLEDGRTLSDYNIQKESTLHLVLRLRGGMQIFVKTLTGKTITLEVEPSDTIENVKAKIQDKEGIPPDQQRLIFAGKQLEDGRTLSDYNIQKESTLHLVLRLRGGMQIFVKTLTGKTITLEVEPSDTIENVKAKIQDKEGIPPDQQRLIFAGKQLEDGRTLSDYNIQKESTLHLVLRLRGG

In the case of PKQRCRAPACDHFGNAKCNGYCNECFQFKQMYG (domain or fragment, biotin (singly biotinylated)) [singly biotinylated A20 zinc finger 7 (ZnF7: P758-G790)], the binding result is “binds”.
